Assay results published in patent US20180155451A1 (published 2018).
Where a chain is given by its changes, count along the chain named. Names and notes keep the numbering of the source. Blank lines part the entries; values can stand above or below the binder they belong to.

Legend:
[1] = target: T1, FcgRIIa H type extracellular domain, C-terminal His tag (human, UniProt P12318 34-217); assay: SPR (Biacore), antibody captured on chip, FcgR extracellular domain as analyte, 25 C, 1:1 Langmuir fit; experiment #3
T1 construct: extracellular domain; also called FcγRIIa H; 2aH; not shown: His tag attached to the C terminus
T1 sequence (looked up): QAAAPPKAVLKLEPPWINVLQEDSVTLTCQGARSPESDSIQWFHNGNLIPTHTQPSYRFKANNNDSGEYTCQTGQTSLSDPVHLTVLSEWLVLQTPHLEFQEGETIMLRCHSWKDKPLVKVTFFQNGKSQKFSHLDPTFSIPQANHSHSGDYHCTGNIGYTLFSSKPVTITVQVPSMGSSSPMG
Method: (§1) Antibodies of interest were analyzed for the interaction to FcgR according to the method described in Reference Example 8.
(§2) Analysis of interaction between obj ective antibody and the FcγR was carried out using Biacore T100 (GE Healthcare), Biacore T200, Biacore A100, and Biacore 4000. HBS-EP+ (GE Healthcare) was used as the running buffer, and the measurement temperature was set to 25° C. Chips produced by immobilizing the antigen peptide by the amine coupling method to a Series S sensor Chip CM5 (GE Healthcare), chips produced by allowing preliminarily biotinylated antigen peptides to interact with and immobilize onto a Series S Sensor Chip SA (certified) (GE Healthcare), chips produced by immobilizing Protein L (ACTIGEN, BioVision) to Series S Sencor Chip CM5 (GE Healthcare), or chips produced by immobilizing Protein A/G (Thermo Scientific) to Series S Sencor Chip CM5 (GE Healthcare) were used. Antibodies of interest were captured onto these chips, and allowed to interact to each FcγR diluted with running buffer. To regenerate and repeatedly use the chip, the antibodies captured onto the chip were washed off by reacting 10 mM glycine-HCl, pH 1.5.

[2] = target: T2, FcgRIIb extracellular domain, C-terminal His tag (human, UniProt P31994 43-217); assay: as above
T2 construct: extracellular domain; also called FcγRIIb; 2b; not shown: His tag attached to the C terminus
T2 sequence (looked up): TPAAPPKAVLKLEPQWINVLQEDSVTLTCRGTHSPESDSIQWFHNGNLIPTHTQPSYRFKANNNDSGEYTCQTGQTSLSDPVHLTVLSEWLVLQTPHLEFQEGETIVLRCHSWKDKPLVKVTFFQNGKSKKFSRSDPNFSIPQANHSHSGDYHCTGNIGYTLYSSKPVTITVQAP
Method: as §1, §2

[3] = target: T3, FcgRIIa R type extracellular domain, C-terminal His tag (human, UniProt P12318 34-217); assay: as above
T3 construct: extracellular domain; also called FcγRIIa R; 2aR; not shown: His tag attached to the C terminus
T3 sequence (looked up): T1 sequence (looked up) with H134R
Method: as §1, §2

[4] = target: T4, FcgRIIIa V type extracellular domain, C-terminal His tag (human, UniProt P08637 17-208); assay: as above
T4 construct: extracellular domain; also called FcγRIIIa V; 3aV; not shown: His tag attached to the C terminus
Method: as §1, §2

[5] = target: T5, FcgRI extracellular domain, C-terminal His tag (human, UniProt P12314 16-292); assay: as above
T5 construct: extracellular domain; also called FcγRIa; FcgRIa; not shown: His tag attached to the C terminus
Method: as §1, §2

[6] = target: T6, FcgRIIIa F type extracellular domain, C-terminal His tag (human, UniProt P08637 17-208); assay: as above
T6 construct: extracellular domain; also called FcγRIIIa F; 3aF; not shown: His tag attached to the C terminus
Method: as §1, §2

[7] = target: T7, FcγRIIIa extracellular domain with C-terminal His tag (human, UniProt P08637 17-208); assay: SPR (Biacore), antibody captured, FcγRIIIa as analyte, 1:1 Langmuir kinetic fit
T7 construct: extracellular domain; also called FcgRIIIa; CD16A
Method: The prepared antibodies were compared for the FcγRIIIa-binding activity using, as an indicator, KD for FcγRIIIa that was determined according to the method described in Reference Example 2.
(§3) Analysis of interaction between objective antibody and the FcγR was carried out using Biacore T100 (GE Healthcare). HBS-EP+ (GE Healthcare) was used as the running buffer, and the measurement temperature was set to 25° C. Chips produced by immobilizing the antigen peptide by the amine coupling method to a Series S Sencor Chip CM5 (GE Healthcare), or alternatively, chips produced by allowing preliminarily biotinylated antigen peptides to interact with and immobilize onto a Series S Sensor Chip SA (certified) (GE Healthcare) were used. Antibodies of interest were captured onto an antigen peptide-immobilized chip, and allowed to interact to each FcγR diluted with running buffer. To regenerate and repeatedly use the chip, the antibodies captured on the chip were washed off by reacting 10 mM glycine-HCl, pH 1.5.
(§4) The FcγR-binding activity of each antibody was assessed primarily using as an indicator the FcγR-binding activity and dissociation constant for FcγR.

[8] = target: T7, FcγRIIIa extracellular domain with …; assay: SPR (Biacore), ratio of KD values for FcγRIIIa
Description: GpH7-A57 (SEQ ID NO: 40) resulting from the introduction of all of S239D, A330L, and I332E into GpH7-A5; GpH7-B78 (SEQ ID NO: 41) resulting from the introduction of all of S239D, A330L, and I332E into GpH7-B3; GpH7-TA7 (SEQ ID NO: 31) resulting from the introduction of all of L234Y, G236W, and S298A into GpH7-A5; and GpH7-TA45 (SEQ ID NO: 32) resulting from the introduction of all of L234Y, G236W, and S298A into GpH7-B3. […] The prepared antibodies were compared for the FcγRIIIa-binding activity using, as an indicator, KD for FcγRIIIa that was determined according to the method described in Reference Example 2.
as §3

[9] = target: T8, FcgRIIIa F extracellular domain with C-terminal His tag (human, UniProt P08637 17-208); assay: SPR (Biacore T100), antibody captured on antigen peptide chip, FcγR extracellular domain as analyte, kinetic analysis
T8 construct: extracellular domain; also called FcγRIIIa F; FcγRIIIa (F158); not shown: His tag attached to the C terminus
Method: (§5) The prepared antibodies were assayed as to the KDs for FcγRIIIa and FcγRIIb according to the method described in Reference Example 2.
as §3, §4

[10] = target: T9, FcgRIIb extracellular domain with C-terminal His tag (human, UniProt P31994 43-217); assay: as above
T9 construct: extracellular domain; also called FcγRIIb; not shown: His tag attached to the C terminus
T9 sequence (looked up): T2 sequence (looked up)
Method: as §5, §3, §4

[11] = target: T8, FcgRIIIa F extracellular domain with …; assay: ratio of SPR (Biacore) KDs, FcγRIIb as reference
Method: as §5, §3, §4

T6 sequence (P08637 17-208): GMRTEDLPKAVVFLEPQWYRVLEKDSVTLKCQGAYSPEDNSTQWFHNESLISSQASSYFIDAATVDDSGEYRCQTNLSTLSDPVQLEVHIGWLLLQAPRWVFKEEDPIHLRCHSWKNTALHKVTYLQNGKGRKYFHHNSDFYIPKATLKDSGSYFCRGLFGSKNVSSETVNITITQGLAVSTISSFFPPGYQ
T8 sequence (P08637 17-208): as above
T4 sequence (P08637 17-208 F176V limits assumed): as the sequence (P08637 17-208) above, with F160V counted along it
T5 sequence (P12314 16-292): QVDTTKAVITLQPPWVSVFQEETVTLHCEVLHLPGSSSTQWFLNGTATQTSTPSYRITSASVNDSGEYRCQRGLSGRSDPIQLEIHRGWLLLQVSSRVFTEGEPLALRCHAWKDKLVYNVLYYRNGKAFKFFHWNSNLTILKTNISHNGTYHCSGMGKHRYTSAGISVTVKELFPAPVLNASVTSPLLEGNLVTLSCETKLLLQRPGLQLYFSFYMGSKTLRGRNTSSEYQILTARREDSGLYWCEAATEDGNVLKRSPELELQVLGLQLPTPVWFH
T7 sequence (P08637 17-208): as the sequence (P08637 17-208) above

- Kd [1]: 77 nM
- Kd [2]: 1600 nM
- Kd [3]: 230 nM
- Kd [4]: 1.5 nM
- Kd [5]: 0.06 nM
- Kd [6]: 4.2 nM
B1: H240-FA021/H240-FB082/L73-k0 (antibody, human IgG1, kappa)
heavy 1: QDQLVQSGAEVKKPGASVKVSCKASGFNIKDTYIQWVRQAPGQGLEWMGRIDPLRKQTKYREKFEGRVTITADTSTNTAYMELSSLRSEDTAVYYCVRSGREFDYWGQGTLVTVSSASTKGPSVFPLAPSSKSTSGGTAALGCLVKDYFPEPVTVSWNSGALTSGVHTFPAVLQSSGLYSLSSVVTVPSSSLGTKTYTCNVNHKPSNTKVDKKVEPKSCDKTHTCPPCPAPEYYWGPSVFLFPPKPKDTLMISRTPEVTCVVVDVSDEEPEVKFNWYVDGVEVHNAKTKPREEQYNATYRVVSVLTVLHQDWLNGKEYKCKVSNKALPAPIEKTISKAKGQPREPQVYTLPPSRKEKTKNQVSLTCLVKGFYPSDIAVEWESNGQPENNYKTTPPKLDSDGSFFLYSKLTVDKSRWQQGNVFSCSVMHEALHNRYTQKSLSLSP
heavy 2: QDQLVQSGAEVKKPGASVKVSCKASGFNIKDTYIQWVRQAPGQGLEWMGRIDPLRKQTKYREKFEGRVTITADTSTNTAYMELSSLRSEDTAVYYCVRSGREFDYWGQGTLVTVSSASTKGPSVFPLAPSSKSTSGETAALGCLVEDYFPEPVTVSWNSGALTSGVHTFPAVLQSSGLYSLSSVVTVPSSSLGTQTYICNVNHKPSNTKVDKKVEPKSCDKTHTCPPCPAPELLGGPSVFLFPPKPKDTLMISRTPEVTCVVVDVSHEEPEVQFNWYVDGVEVHNAETKPREEQYNSTYRVVSVLTVLHQDWLNGKEYKCKVSNDALPMPIEETISKAKGQPREPQVYTLPPSREEMTKNQVSLTCLVKGFYPSDIAVEWESEGQPENNYKTTPPVLDSDGSFFLYSKLTVDKSRWQQGNVFSCSVMHEALHNHYTQESLSLSP
light: DIQMTQSPSSLSASVGDRVTITCRASQDIHKYIAWYQQKPGQAPRLLIQYTSTLQPGVPSRFSGSGSGTDYTFTISSLQPEDIATYYCLQYEQLRTFGGGTKVEIKRTVAAPSVFIFPPSDEQLKSGTASVVCLLNNFYPREAKVQWKVDNALQSGNSQESVTEQDSKDSTYSLSSTLTLSKADYEKHKVYACEVTHQGLSSPVTKSFNRGEC
notes: Heterodimerized anti-epiregulin IgG1 antibody

- Kd [1]: 69 nM
- Kd [2]: 1300 nM
- Kd [3]: 240 nM
- Kd [4]: 1.4 nM
- Kd [5]: 0.078 nM
- Kd [6]: 3.9 nM
B2: H240-FA021/H240-FB083/L73-k0 (antibody, human IgG1, kappa)
heavy 1: B1 heavy 1
heavy 2: B1 heavy 2 with G136E, E137S, S191N, L192F, I198T, N202D, K213T, E383N
light: B1 light
notes: as for B1

- Kd [1]: 69 nM
- Kd [2]: 1300 nM
- Kd [3]: 230 nM
- Kd [4]: 1.3 nM
- Kd [5]: 0.033 nM
- Kd [6]: 3.3 nM
B3: H240-FA021/H240-FB084/L73-k0 (antibody, human IgG1, kappa)
heavy 1: B1 heavy 1
heavy 2: B1 heavy 2 with G136E, E137S, S191N, L192F, I198T, N202D, K213T
light: B1 light
notes: Heterodimerized anti-epiregulin IgG1 antibody; also called H240-FA021/H240-BF084/L73-k0

- Kd [7]: 1200 nM
- KD ratio 1 (KD of GpH7-G1d/GpL16-k0 divided by KD of the antibody) [8]: 1 fold
B4: GpH7-G1d/GpL16-k0 (antibody, human IgG1, kappa)
heavy: not shown
light: DIVMTQSPLSLPVTPGEPASISCQASESLVHSNRNTYLHWYLQKPGQSPQLLIYKVSNRFSGVPDRFSGSGSGTDFTLKISRVEAEDVGVYYCSQNTHVPPTFGQGTKVEIERTVAAPSVFIFPPSDEQLKSGTASVVCLLNNFYPREAKVQWKVDNALQSGNSQESVTEQDSKDSTYSLSSTLTLSKADYEKHKVYACEVTHQGLSSPVTKSFNRGEC
notes: Anti-glypican-3 native-type human IgG1 control; also called native IgG1

- Kd [9]: 1600 nM
- Kd [10]: 3100 nM
- FcγRIIIa F/FcγRIIb ratio (KD for FcγRIIb / KD for FcγRIIIa F) [11]: 1.9
B5: GpH7-A5/GpH7-B3/GpL16-k0 (antibody, human IgG1, kappa)
heavy 1: not shown
heavy 2: not shown
light: B4 light
notes: also called A5/B3; HeCon Ab

- Kd [9]: 1200 nM
- Kd [10]: 3100 nM
- FcγRIIIa F/FcγRIIb ratio (KD for FcγRIIb / KD for FcγRIIIa F) [11]: 2.5
B6: GpH7-G1d/GpL16-k0 (antibody, human IgG1, kappa)
heavy: not shown
light: B4 light
notes: Anti-glypican-3 IgG1 lacking the C-terminal Gly and Lys; also called native IgG1

- Kd [9]: 54 nM
- Kd [10]: 430 nM
- FcγRIIIa F/FcγRIIb ratio (KD for FcγRIIb / KD for FcγRIIIa F) [11]: 7.9
B7: GpH7-A5/GpH7-B78/GpL16-k0 (antibody, human IgG1, kappa)
heavy 1: not shown
heavy 2: QVQLVQSGAEVKKPGASVTVSCKASGYTFTDYEMHWIRQPPGEGLEWIGAIDPKTGDTAYSESFQDRVTLTADKSTSTAYMELSSLTSEDTAVYYCTRFYSYTYWGQGTLVTVSSASTKGPSVFPLAPSSKSTSGGTAALGCLVKDYFPEPVTVSWNSGALTSGVHTFPAVLQSSGLYSLSSVVTVPSSSLGTQTYICNVNHKPSNTKVDKKVEPKSCDKTHTCPPCPAPELLGGPDVFLFPPKPKDTLMISRTPEVTCVVVDVSHEDPEVKFNWYVDGVEVHNAKTKPREEQYNSTYRVVSVLTVLHQDWLNGKEYKCKVSNKALPLPEEKTISKAKGQPREPQVYTLPPSRDELTKNQVSLTCLVKGFYPSDIAVEWESNGQPENNYKTTPPVLDSDGSFFLYSKLTVDKSRWQQGNVFSCSVMHEALHNHYTQESLSLSP
light: B4 light
notes: S239D/A330L/I332E in one H chain only; also called A5/B78

- Kd [9]: 6.2 nM
- Kd [10]: 610 nM
- FcγRIIIa F/FcγRIIb ratio (KD for FcγRIIb / KD for FcγRIIIa F) [11]: 100
B8: GpH7-A57/GpH7-B78/GpL16-k0 (antibody, human IgG1, kappa)
heavy 1: B7 heavy 2 with D354K, H433R, E437K
heavy 2: B7 heavy 2
light: B4 light
notes: S239D/A330L/I332E in both H chains (called homodimerized); also called A57/B78
